T1: APBA2_2, Q99767
T1 sequence (Q99767 654-744, limits assumed, looked up): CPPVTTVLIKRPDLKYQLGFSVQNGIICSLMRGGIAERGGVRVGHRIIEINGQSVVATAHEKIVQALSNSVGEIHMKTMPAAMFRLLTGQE

T2: LIN7C, Q9NUP9
T2 sequence (Q9NUP9 88-185, limits assumed, looked up): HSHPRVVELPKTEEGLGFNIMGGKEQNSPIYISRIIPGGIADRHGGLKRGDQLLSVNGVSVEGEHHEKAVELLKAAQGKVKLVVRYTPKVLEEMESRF

T3: HTRA4, P83105
T3 sequence (P83105 378-476, limits assumed, looked up): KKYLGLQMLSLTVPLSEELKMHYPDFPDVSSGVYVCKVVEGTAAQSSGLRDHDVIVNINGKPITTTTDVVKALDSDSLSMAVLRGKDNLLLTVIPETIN

T4: LNX2_2, Q8N448
T4 sequence (Q8N448 334-432, limits assumed, looked up): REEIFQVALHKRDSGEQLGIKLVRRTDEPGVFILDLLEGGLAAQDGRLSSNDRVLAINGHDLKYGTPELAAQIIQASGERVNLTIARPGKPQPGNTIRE

T5: ARHGAP21, Q5T5U3
T5 sequence (Q5T5U3 45-169, limits assumed, looked up): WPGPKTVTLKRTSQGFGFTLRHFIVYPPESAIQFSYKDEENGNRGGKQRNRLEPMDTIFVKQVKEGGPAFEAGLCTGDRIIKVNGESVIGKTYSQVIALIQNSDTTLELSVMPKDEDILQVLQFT

T6: PDZRN3_1, Q9UPQ7
T6 sequence (Q9UPQ7 244-349, limits assumed, looked up): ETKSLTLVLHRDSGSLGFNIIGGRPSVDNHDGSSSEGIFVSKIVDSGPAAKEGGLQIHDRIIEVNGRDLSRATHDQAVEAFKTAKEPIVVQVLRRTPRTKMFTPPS

B1: EPHB6, O15197 (peptide)
chain: HLRQQGSVEV
B2: ADGRA2, Q96PE1 (peptide)
chain: TGLWKSETTV

What follows are binders tested against T1, APBA2_2, Q99767 (assay: holdup assay). Conditions: plain residues with an end cap or a label only (N-terminal biotin on a linker: ado-ado).
Parameters: key: below the threshold = too weak to quantify, mostly under pKd 3.1 to 4

Binder	pKd
B1	below the threshold
B2	below the threshold

Each binder was assayed against Inadl_4, Q8NI35 (assay: holdup assay). Conditions: plain residues with an end cap or a label only (N-terminal biotin on a linker: ado-ado).
Chain of Inadl_4, Q8NI35 (Q8NI35 547-651): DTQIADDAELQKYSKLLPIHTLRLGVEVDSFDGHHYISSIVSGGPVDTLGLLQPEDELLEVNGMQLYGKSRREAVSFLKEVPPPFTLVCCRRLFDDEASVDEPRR
Parameters: key: below the threshold = too weak to quantify, mostly under pKd 3.1 to 4

Binder	pKd
B1	below the threshold
B2	below the threshold

These binders were tested against GRASP, Q7Z6J2 (assay: holdup assay). Conditions: plain residues with an end cap or a label only (N-terminal biotin on a linker: ado-ado).
Chain of GRASP, Q7Z6J2 (Q7Z6J2 96-193): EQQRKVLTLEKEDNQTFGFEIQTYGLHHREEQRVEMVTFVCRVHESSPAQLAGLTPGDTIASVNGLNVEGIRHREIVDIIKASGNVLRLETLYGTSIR
Parameters: key: below the threshold = too weak to quantify, mostly under pKd 3.1 to 4

Binder	pKd
B1	below the threshold
B2	3.72

What follows are binders tested against MAGI1_1, Q96QZ7 (assay: holdup assay). Conditions: plain residues with an end cap or a label only (N-terminal biotin on a linker: ado-ado).
Chain of MAGI1_1, Q96QZ7 (Q96QZ7 1-106): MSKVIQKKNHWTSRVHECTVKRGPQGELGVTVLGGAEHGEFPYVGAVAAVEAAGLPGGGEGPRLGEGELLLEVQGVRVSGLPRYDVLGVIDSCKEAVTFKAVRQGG
Parameters: key: below the threshold = too weak to quantify, mostly under pKd 3.1 to 4

Binder	pKd
B1	below the threshold
B2	3.55

Each binder was assayed against T2, LIN7C, Q9NUP9 (assay: holdup assay). Conditions: plain residues with an end cap or a label only (N-terminal biotin on a linker: ado-ado).
Parameters: key: below the threshold = too weak to quantify, mostly under pKd 3.1 to 4

Binder	pKd
B1	below the threshold
B2	4.29

Each binder was assayed against IL16_3, Q14005 (assay: holdup assay). Conditions: plain residues with an end cap or a label only (N-terminal biotin on a linker: ado-ado).
Chain of IL16_3, Q14005 (Q14005 1107-1207): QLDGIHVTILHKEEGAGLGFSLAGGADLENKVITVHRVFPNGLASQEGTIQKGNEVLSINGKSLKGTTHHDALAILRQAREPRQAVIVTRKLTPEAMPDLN
Parameters: key: below the threshold = too weak to quantify, mostly under pKd 3.1 to 4

Binder	pKd
B1	below the threshold
B2	below the threshold

The binders below were run against T3, HTRA4, P83105 (assay: holdup assay). Conditions: plain residues with an end cap or a label only (N-terminal biotin on a linker: ado-ado).
Parameters: key: below the threshold = too weak to quantify, mostly under pKd 3.1 to 4

Binder	pKd
B1	4.39
B2	below the threshold

Each binder was assayed against GOPC, Q9HD26 (assay: holdup assay). Conditions: plain residues with an end cap or a label only (N-terminal biotin on a linker: ado-ado).
Parameters: key: below the threshold = too weak to quantify, mostly under pKd 3.1 to 4

Binder	pKd
B1	below the threshold
B2	3.78

Each binder was assayed against T4, LNX2_2, Q8N448 (assay: holdup assay). Conditions: plain residues with an end cap or a label only (N-terminal biotin on a linker: ado-ado).
Parameters: key: below the threshold = too weak to quantify, mostly under pKd 3.1 to 4

Binder	pKd
B1	5.03
B2	4.98

Each binder was assayed against DLG4_2, P78352 (assay: holdup assay). Conditions: plain residues with an end cap or a label only (N-terminal biotin on a linker: ado-ado).
Chain of DLG4_2, P78352 (P78352 155-259): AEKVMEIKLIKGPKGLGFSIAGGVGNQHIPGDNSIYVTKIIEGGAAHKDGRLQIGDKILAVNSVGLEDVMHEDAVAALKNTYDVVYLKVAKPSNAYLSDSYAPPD
Parameters: key: below the threshold = too weak to quantify, mostly under pKd 3.1 to 4

Binder	pKd
B1	3.72
B2	5.22

What follows are binders tested against GRIP2_7, Q9C0E4 (assay: holdup assay). Conditions: plain residues with an end cap or a label only (N-terminal biotin on a linker: ado-ado).
Chain of GRIP2_7, Q9C0E4 (Q9C0E4 934-1023): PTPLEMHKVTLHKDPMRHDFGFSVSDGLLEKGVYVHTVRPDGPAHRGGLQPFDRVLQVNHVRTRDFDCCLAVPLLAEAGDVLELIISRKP
Parameters: key: below the threshold = too weak to quantify, mostly under pKd 3.1 to 4

Binder	pKd
B1	below the threshold
B2	below the threshold

These binders were tested against DLG4_1, P78352 (assay: holdup assay). Conditions: plain residues with an end cap or a label only (N-terminal biotin on a linker: ado-ado).
Chain of DLG4_1, P78352 (P78352 62-152): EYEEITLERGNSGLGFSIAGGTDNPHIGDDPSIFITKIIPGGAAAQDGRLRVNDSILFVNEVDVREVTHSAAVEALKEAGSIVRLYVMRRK
Parameters: key: below the threshold = too weak to quantify, mostly under pKd 3.1 to 4

Binder	pKd
B1	3.5
B2	4.94

What follows are binders tested against IL16_4, Q14005 (assay: holdup assay). Conditions: plain residues with an end cap or a label only (N-terminal biotin on a linker: ado-ado).
Chain of IL16_4, Q14005 (Q14005 1229-1329): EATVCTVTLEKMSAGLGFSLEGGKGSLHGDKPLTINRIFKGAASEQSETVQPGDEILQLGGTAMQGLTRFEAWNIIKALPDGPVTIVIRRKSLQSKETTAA
Parameters: key: below the threshold = too weak to quantify, mostly under pKd 3.1 to 4

Binder	pKd
B1	below the threshold
B2	below the threshold

These binders were tested against DLG2_3, Q15700 (assay: holdup assay). Conditions: plain residues with an end cap or a label only (N-terminal biotin on a linker: ado-ado).
Parameters: key: below the threshold = too weak to quantify, mostly under pKd 3.1 to 4

Binder	pKd
B1	below the threshold
B2	4.5

What follows are binders tested against FRMPD4, Q14CM0 (assay: holdup assay). Conditions: plain residues with an end cap or a label only (N-terminal biotin on a linker: ado-ado).
Chain of FRMPD4, Q14CM0 (Q14CM0 67-160): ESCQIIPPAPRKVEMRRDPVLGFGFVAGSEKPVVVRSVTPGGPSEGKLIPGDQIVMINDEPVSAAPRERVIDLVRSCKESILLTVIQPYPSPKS
Parameters: key: below the threshold = too weak to quantify, mostly under pKd 3.1 to 4

Binder	pKd
B1	below the threshold
B2	below the threshold

The binders below were run against Inadl_5, Q8NI35 (assay: holdup assay). Conditions: plain residues with an end cap or a label only (N-terminal biotin on a linker: ado-ado).
Chain of Inadl_5, Q8NI35 (Q8NI35 673-780): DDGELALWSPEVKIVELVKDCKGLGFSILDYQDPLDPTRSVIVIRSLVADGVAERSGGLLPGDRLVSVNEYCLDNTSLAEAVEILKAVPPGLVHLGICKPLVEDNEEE
Parameters: key: below the threshold = too weak to quantify, mostly under pKd 3.1 to 4

Binder	pKd
B1	below the threshold
B2	below the threshold

The binders below were run against GORASP1, Q9BQQ3 (assay: holdup assay). Conditions: plain residues with an end cap or a label only (N-terminal biotin on a linker: ado-ado).
Chain of GORASP1, Q9BQQ3 (Q9BQQ3 1-208): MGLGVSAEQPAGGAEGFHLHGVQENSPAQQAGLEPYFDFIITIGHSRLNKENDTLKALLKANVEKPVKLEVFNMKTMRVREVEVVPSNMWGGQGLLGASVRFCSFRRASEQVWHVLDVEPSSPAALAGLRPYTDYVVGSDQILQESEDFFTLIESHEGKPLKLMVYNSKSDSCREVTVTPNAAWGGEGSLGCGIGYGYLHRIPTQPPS
Parameters: key: below the threshold = too weak to quantify, mostly under pKd 3.1 to 4

Binder	pKd
B1	below the threshold
B2	3.5

The binders below were run against PDLIM1, O00151 (assay: holdup assay). Conditions: plain residues with an end cap or a label only (N-terminal biotin on a linker: ado-ado).
Chain of PDLIM1, O00151 (O00151 1-87): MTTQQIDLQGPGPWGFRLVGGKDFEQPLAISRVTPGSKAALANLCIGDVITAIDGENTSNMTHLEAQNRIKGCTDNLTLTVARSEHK
Parameters: key: below the threshold = too weak to quantify, mostly under pKd 3.1 to 4

Binder	pKd
B1	below the threshold
B2	below the threshold

The binders below were run against MAGI2_2, Q86UL8 (assay: holdup assay). Conditions: plain residues with an end cap or a label only (N-terminal biotin on a linker: ado-ado).
Chain of MAGI2_2, Q86UL8 (Q86UL8 410-522): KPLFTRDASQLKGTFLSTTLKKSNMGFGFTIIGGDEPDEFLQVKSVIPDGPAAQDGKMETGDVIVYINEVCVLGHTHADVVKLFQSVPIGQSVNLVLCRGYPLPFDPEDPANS
Parameters: key: below the threshold = too weak to quantify, mostly under pKd 3.1 to 4

Binder	pKd
B1	below the threshold
B2	5.37

What follows are binders tested against FRMPD3, Q5JV73 (assay: holdup assay). Conditions: plain residues with an end cap or a label only (N-terminal biotin on a linker: ado-ado).
Chain of FRMPD3, Q5JV73 (Q5JV73 12-100): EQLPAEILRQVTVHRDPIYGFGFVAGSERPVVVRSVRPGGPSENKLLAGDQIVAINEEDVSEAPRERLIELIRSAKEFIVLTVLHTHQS
Parameters: key: below the threshold = too weak to quantify, mostly under pKd 3.1 to 4

Binder	pKd
B1	below the threshold
B2	below the threshold

Each binder was assayed against GRIP2_4, Q9C0E4 (assay: holdup assay). Conditions: plain residues with an end cap or a label only (N-terminal biotin on a linker: ado-ado).
Chain of GRIP2_4, Q9C0E4 (Q9C0E4 446-548): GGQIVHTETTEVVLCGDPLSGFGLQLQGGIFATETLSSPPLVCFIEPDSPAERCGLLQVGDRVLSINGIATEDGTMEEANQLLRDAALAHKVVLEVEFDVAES
Parameters: key: below the threshold = too weak to quantify, mostly under pKd 3.1 to 4

Binder	pKd
B1	below the threshold
B2	below the threshold

The binders below were run against T5, ARHGAP21, Q5T5U3 (assay: holdup assay). Conditions: plain residues with an end cap or a label only (N-terminal biotin on a linker: ado-ado).
Parameters: key: below the threshold = too weak to quantify, mostly under pKd 3.1 to 4

Binder	pKd
B1	4.16
B2	4.03

What follows are binders tested against T6, PDZRN3_1, Q9UPQ7 (assay: holdup assay). Conditions: plain residues with an end cap or a label only (N-terminal biotin on a linker: ado-ado).
Parameters: key: below the threshold = too weak to quantify, mostly under pKd 3.1 to 4

Binder	pKd
B1	below the threshold
B2	4.07

Each binder was assayed against MAGI2_5, Q86UL8 (assay: holdup assay). Conditions: plain residues with an end cap or a label only (N-terminal biotin on a linker: ado-ado).
Chain of MAGI2_5, Q86UL8 (Q86UL8 915-1017): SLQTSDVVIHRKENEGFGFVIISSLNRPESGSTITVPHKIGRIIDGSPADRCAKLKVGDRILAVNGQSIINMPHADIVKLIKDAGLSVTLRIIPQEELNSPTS
Parameters: key: below the threshold = too weak to quantify, mostly under pKd 3.1 to 4

Binder	pKd
B1	below the threshold
B2	4.12

These binders were tested against LAP2, Q96RT1 (assay: holdup assay). Conditions: plain residues with an end cap or a label only (N-terminal biotin on a linker: ado-ado).
Chain of LAP2, Q96RT1 (Q96RT1 other isoform, or with tags, fused parts or gaps): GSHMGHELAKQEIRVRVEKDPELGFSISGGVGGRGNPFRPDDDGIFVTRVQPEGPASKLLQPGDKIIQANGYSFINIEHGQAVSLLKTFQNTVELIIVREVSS
Parameters: key: below the threshold = too weak to quantify, mostly under pKd 3.1 to 4

Binder	pKd
B1	below the threshold
B2	3.7

What follows are binders tested against DLG4_3, P78352 (assay: holdup assay). Conditions: plain residues with an end cap or a label only (N-terminal biotin on a linker: ado-ado).
Chain of DLG4_3, P78352 (P78352 306-403): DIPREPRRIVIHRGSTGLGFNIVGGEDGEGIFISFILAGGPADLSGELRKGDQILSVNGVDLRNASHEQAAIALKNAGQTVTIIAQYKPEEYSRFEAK
Parameters: key: below the threshold = too weak to quantify, mostly under pKd 3.1 to 4

Binder	pKd
B1	below the threshold
B2	4.47

Each binder was assayed against TJP1_2, Q07157 (assay: holdup assay). Conditions: plain residues with an end cap or a label only (N-terminal biotin on a linker: ado-ado).
Chain of TJP1_2, Q07157 (Q07157 181-274): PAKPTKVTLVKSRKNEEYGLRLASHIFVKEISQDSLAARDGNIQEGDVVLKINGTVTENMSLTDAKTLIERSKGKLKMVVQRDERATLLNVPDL
Parameters: key: below the threshold = too weak to quantify, mostly under pKd 3.1 to 4

Binder	pKd
B1	below the threshold
B2	3.6

Each binder was assayed against LNX1_1, Q8TBB1 (assay: holdup assay). Conditions: plain residues with an end cap or a label only (N-terminal biotin on a linker: ado-ado).
Chain of LNX1_1, Q8TBB1 (Q8TBB1 261-371): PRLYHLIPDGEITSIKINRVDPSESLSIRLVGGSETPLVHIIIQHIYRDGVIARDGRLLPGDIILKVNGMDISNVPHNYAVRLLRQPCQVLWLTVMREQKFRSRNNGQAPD
Parameters: key: below the threshold = too weak to quantify, mostly under pKd 3.1 to 4

Binder	pKd
B1	below the threshold
B2	below the threshold

These binders were tested against LDB3, O75112 (assay: holdup assay). Conditions: plain residues with an end cap or a label only (N-terminal biotin on a linker: ado-ado).
Chain of LDB3, O75112 (O75112 1-94): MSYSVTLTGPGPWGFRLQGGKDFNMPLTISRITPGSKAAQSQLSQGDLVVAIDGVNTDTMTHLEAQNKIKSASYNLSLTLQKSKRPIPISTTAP
Parameters: key: below the threshold = too weak to quantify, mostly under pKd 3.1 to 4

Binder	pKd
B1	below the threshold
B2	below the threshold

The binders below were run against MAGI2_3, Q86UL8 (assay: holdup assay). Conditions: plain residues with an end cap or a label only (N-terminal biotin on a linker: ado-ado).
Chain of MAGI2_3, Q86UL8 (Q86UL8 600-682): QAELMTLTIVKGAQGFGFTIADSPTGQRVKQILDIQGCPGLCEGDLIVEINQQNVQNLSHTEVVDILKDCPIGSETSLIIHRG
Parameters: key: below the threshold = too weak to quantify, mostly under pKd 3.1 to 4

Binder	pKd
B1	below the threshold
B2	below the threshold

Each binder was assayed against DLG1_2, Q12959 (assay: holdup assay). Conditions: plain residues with an end cap or a label only (N-terminal biotin on a linker: ado-ado).
Chain of DLG1_2, Q12959 (Q12959 314-412): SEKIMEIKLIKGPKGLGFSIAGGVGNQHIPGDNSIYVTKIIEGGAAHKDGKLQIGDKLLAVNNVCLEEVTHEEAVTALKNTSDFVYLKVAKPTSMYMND
Parameters: key: below the threshold = too weak to quantify, mostly under pKd 3.1 to 4

Binder	pKd
B1	3.52
B2	5.26

What follows are binders tested against HTRA1, Q92743 (assay: holdup assay). Conditions: plain residues with an end cap or a label only (N-terminal biotin on a linker: ado-ado).
Chain of HTRA1, Q92743 (Q92743 360-477): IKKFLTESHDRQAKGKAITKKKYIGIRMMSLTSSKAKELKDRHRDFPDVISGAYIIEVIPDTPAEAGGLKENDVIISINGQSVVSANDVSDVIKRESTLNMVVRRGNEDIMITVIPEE
Parameters: key: below the threshold = too weak to quantify, mostly under pKd 3.1 to 4

Binder	pKd
B1	4.59
B2	4.27

These binders were tested against Inadl_8, Q8NI35 (assay: holdup assay). Conditions: plain residues with an end cap or a label only (N-terminal biotin on a linker: ado-ado).
Chain of Inadl_8, Q8NI35 (Q8NI35 1425-1530): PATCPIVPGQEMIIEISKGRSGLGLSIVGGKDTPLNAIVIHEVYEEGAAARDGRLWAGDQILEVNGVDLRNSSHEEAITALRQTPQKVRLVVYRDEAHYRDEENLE
Parameters: key: below the threshold = too weak to quantify, mostly under pKd 3.1 to 4

Binder	pKd
B1	below the threshold
B2	3.65

Reference: paper PMC9482650, “Quantitative fragmentomics allow affinity mapping of interactomes” (Nature Communications, 2022)
